Measurements from PMC4783047, “Determinants of Amyloid Formation for the Yeast Termination Factor Nab3” (PLoS ONE, 2016).
Blank lines part the entries; values can stand above or below the molecule they belong to.

Legend:
thioflavin T = assay: Thioflavin T fluorescence; conditions: value read at the wild-type emission peak, about 480 nm; the mutant trace lies on the zero line over the whole 460-595 nm spectrum; parent: est. 66; read off a plot
[1] = biological target: the molecule itself; assay: transmission electron microscopy of filaments (negative stain); purified, concentrated protein left undisturbed (4°C, or 4°C or 22°C for the LCD proteins) for days to weeks; 1% phosphotungstic acid stain; self-assembly into filaments

response (thioflavin T): 0
Molecule: Nab3 low complexity domain, C-terminal 134 amino acids of Nab3 (Nab3^134) (from UniProt P38996) Q2E; Q7E; Q9E; Q15E; Q30E; Q32E; Q34E; Q39E; Q41E; Q47E; Q50E; Q52E; Q55E; Q57E; Q59E; Q82E; Q96E; Q101E; Q105E; Q107E; Q109E; Q111E; Q113E; Q115E

B1: Full-length Nab3 (natural protein, S. cerevisiae, UniProt P38996 1-802, looked up)
chain: MSDENHNSDVQDIPSPELSVDSNSNENELMNNSSADDGIEFDAPEEEREAEREEENEEQHELEDVNDEEEEDKEEKGEENGEVINTEEEEEEEHQQKGGNDDDDDDNEEEEEEEEDDDDDDDDDDDDEEEEEEEEEEGNDNSSVGSDSAAEDGEDEEDKKDKTKDKEVELRRETLEKEQKDVDEAIKKITREENDNTHFPTNMENVNYDLLQKQVKYIMDSNMLNLPQFQHLPQEEKMSAILAMLNSNSDTALSVPPHDSTISTTASASATSGARSNDQRKPPLSDAQRRMRFPRADLSKPITEEEHDRYAAYLHGENKITEMHNIPPKSRLFIGNLPLKNVSKEDLFRIFSPYGHIMQINIKNAFGFIQFDNPQSVRDAIECESQEMNFGKKLILEVSSSNARPQFDHGDHGTNSSSTFISSAKRPFQTESGDMYNDDNGAGYKKSRRHTVSCNIFVKRTADRTYAIEVFNRFRDGTGLETDMIFLKPRMELGKLINDAAYNGVWGVVLVNKTHNVDVQTFYKGSQGETKFDEYISISADDAVAIFNNIKNNRNNSRPTDYRAMSHQQNIYGAPPLPVPNGPAVGPPPQTNYYQGYSMPPPQQQQQQPYGNYGMPPPSHDQGYGSQPPIPMNQSYGRYQTSIPPPPPQQQIPQGYGRYQAGPPPQPPSQTPMDQQQLLSAIQNLPPNVVSNLLSMAQQQQQQPHAQQQLVGLIQSMQGQAPQQQQQQLGGYSSMNSSSPPPMSTNYNGQNISAKPSAPPMSHQPPPPQQQQQQQQQQQQQQQQPAGNNVQSLLDSLAKLQK
notes: Nab3, S. cerevisiae transcription termination factor, 802 amino acids; also called full-length wildtype Nab3; the entire 802-residue protein
binding result [1]: binds

B2: Pcf11 low complexity domain (residues 228-287) (domain or fragment, yeast, UniProt P39081 228-287, looked up)
chain: MRYHELQQQQQQQQQQQQQQQQQQQQYHETKDMVGSYTQNSNSAIPLFGNNSDTTNQQNS
notes: Pcf11, yeast transcription termination factor, codon 228 to codon 287 (core prion-like domain as defined by Alberti et al.); Inserted between the BglII and XhoI sites of pET32a; also called Pcf11 LCD; Pcf11's LCD; source: E. coli, pET32-Pcf11-LCD (synthetic gene), thioredoxin fusion, purified (HisTrap, thrombin cleavage, second HisTrap)
binding result [1]: binds

B3: Nab3 low complexity domain, C-terminal 134 amino acids of Nab3 (Nab3^134) (domain or fragment, S. cerevisiae, UniProt P38996 669-802, looked up)
chain: SQTPMDQQQLLSAIQNLPPNVVSNLLSMAQQQQQQPHAQQQLVGLIQSMQGQAPQQQQQQLGGYSSMNSSSPPPMSTNYNGQNISAKPSAPPMSHQPPPPQQQQQQQQQQQQQQQQPAGNNVQSLLDSLAKLQK
notes: Inserted between the BglII and XhoI sites of pET32a; also called Nab3 LCD; wildtype LCD
binding result [1]: binds

B4: Nab3^134 with the last 18 amino acids of Nab3 deleted (Nab3^134Δα) (domain or fragment, S. cerevisiae, UniProt P38996 669-784, looked up)
chain: SQTPMDQQQLLSAIQNLPPNVVSNLLSMAQQQQQQPHAQQQLVGLIQSMQGQAPQQQQQQLGGYSSMNSSSPPPMSTNYNGQNISAKPSAPPMSHQPPPPQQQQQQQQQQQQQQQQ
notes: Same vector as m1, so an S-tag is probably left after thrombin cleavage
binding result [1]: binds
